Target: human amyloid β (Aβ) peptides secreted into the medium of Tg2576 neuron cultures (Aβ40, Aβ42 and their oligomers) (human) (UniProt P05067)
Experiment: cell-based or functional assay

Chain of human amyloid β (Aβ) peptides secreted into the medium of Tg2576 neuron cultures (Aβ40, Aβ42 and their oligomers) (human) (P05067 672-713 limits assumed): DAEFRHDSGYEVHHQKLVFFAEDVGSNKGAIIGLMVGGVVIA

[Ca2+]i of wild-type neurons treated with TgCM depleted with 3D6 (Indo-1): 98 nM
Substance: 3D6 antibody, a high-titer monoclonal Aβ antibody
